Reference: patent US11857601B2, “Pharmaceutical composition for cancer treatment comprising fusion protein including IL-2 protein and CD80 protein and anticancer drug” (GI INNOVATION, INC., priority 2020, dated 2024)

Legend:
CT26 cancer cell line = assay: mGI102-M61 in mice transplanted with CT26 (Exp. Ex. 18); assay type: in vivo, BALB/c mice; conditions: 12 mg/kg i.v.
Method: The tumor size was measured daily.

[1] = system: effector CD8+ T cells, NK cells, Treg cells; assay: Effect on mouse immune cells in spleen; assay type: in vivo, C57BL/6 mice; conditions: vs PBS
Method: On days 1, 3, 5, 7, and 14 after the injection, the spleen tissues were removed from the mice of each group. Thereafter, for the spleen tissue, the numbers of effector CD8+ T cells, NK cells, and Treg cells were calculated with FACS analysis using respective antibodies, and proportions of effector CD8+ T cells and NK cells with respect to Treg cells were respectively calculated. The information on the antibodies used in each cell analysis is as follows:
Effector CD8+ T cell: PB anti-mouse CD3ε antibody (Biolegend, #155612; KT3.1.1), FITC anti-mouse CD8α antibody (BD, #553031, 53-6.7), PE/Cy7 anti-mouse CD44 antibody (Biolegend, #103030; IM7), APC anti-mouse CD122 antibody (Biolegend, #123214; TM-β1)
NK cell: PB anti-mouse CD3ε antibody (Biolegend, #155612; KT3.1.1), PE anti-mouse NK-1.1 (Biolegend, #108708; PK136)
Treg cell: FITC anti-mouse CD3 antibody (Biolegend, #100204; 17A2), PB anti-mouse CD4 antibody (Biolegend, #100531; RM4-5), PE anti-mouse CD25 antibody (Biolegend, #102008; PC61), APC anti-mouse Foxp3 antibody (Invitrogen, #FJK-16s, 17-5773-82).

[2] = system: CD8+ T cells and CD4+/FoxP3+ Treg cells; assay: Proliferation of CD8+ T cells and Treg cells in PBMCs (Exp. Ex. 10); assay type: cell-based, human; conditions: for proliferation of CD4+/FoxP3+ Treg cells: compared with no stimulus and anti-CD3 antibody alone
Method: Human PBMCs were purchased from Allcells (Lot #3014928, USA). […] CellTrace CFSE dye was used, which was reacted with the human PBMCs under a light-blocking condition at […] for 20 minutes. The cells were labeled with CFSE by being reacted with 1 μM CellTrace CFSE dye at 37° C. for 20 minutes. CFSE not bound to the cells was removed by being reacted for 5 minutes with a culture medium having a 5-fold volume of the staining reaction solution and then by being centrifuged at 1,300 rpm for 5 minutes. The CFSE-labeled PBMCs were resuspended in the culture medium (RPMI1640 medium containing 10% fetal bovine serum, 10 mM HEPES, 100 U/ml penicillin/streptomycin, 1 mM sodium pyruvate, 55 μM 2-mercaptoethanol, 1 mM non-essential amino acid, and 2 mM L-glutamine), and then added to a 96-well microplate at 1×10^5 cells per well.
The incubated cells were examined for their degree of proliferation by measuring, with FACS analysis using anti-human CD4-PE antibody (BioLegend, USA), anti-human CD8-PE/Cy7 antibody (BioLegend, USA), and anti-human FoxP3-APC antibody (BioLegend, USA), a proportion of CD8+ T cells that had not been labeled with CFSE.

B1: mGI102-M61: mCD80-Fc-IL-2 variant (3M) (R38A, F42A, E61R); SEQ ID NO: 34 (protein)
chain: MDAMLRGLCCVLLLCGAVFVSPSHAVDEQLSKSVKDKVLLPCRYNSPHEDESEDRIYWQKHDKVVLSVIAGKLKVWPEYKNRTLYDNTTYSLIILGLVLSDRGTYSCVVQKKERGTYEVKHLALVKLSIKADFSTPNITESGNPSADTKRITCFASGGFPKPRFSWLENGRELPGINTTISQDPESELYTISSQLDFNTTRNHTIKCLIKYGDAHVSEDFTWEKPPEDPPDSGSGGGGSGGGGSGGGGSAESKYGPPCPPCPAPEAAGGPSVFLFPPKPKDQLMISRTPEVTCVVVDVSQEDPEVQFNWYVDGVEVHNAKTKPREEQFNSTYRVVSVLTVLHQDWLNGKEYKCKVSNKGLPSSIEKTISKAKGQPREPQVYTLPPSQEEMTKNQVSLTCLVKGFYPSDIAVEWESNGQPENNYKTTPPVLDSDGSFFLYSRLTVDKSRWQEGNVFSCSVLHEALHNHYTQKSLSLSLGGGGGSAPTSSSTKKTQLQLEHLLLDLQMILNGINNYKNPKLTAMLTAKFYMPKKATELKHLQCLERELKPLEEVLNLAQSKNFHLRPRDLISNINVIVLELKGSETTFMCEYADETATIVEFLNRWITFCQSIISTLT
modifications: Sequence of fusion protein (mGI102-M61)
- survival rate (CT26 cancer cell line; vs negative control): significant improvement
- Tumor growth inhibition (CT26 cancer cell line; vs negative control (hIgG4)): significant tumor growth inhibition
- proportions of activated CD8+ T cells/Treg cells and NK cells/Treg cells ([1]; 3rd to 7th days after administration): significant increase
- numbers of CD8+ T cells and NK cells ([1]; 3rd to 14th days after i.v. administration (3, 6 or 12 mg/kg)): significant increase

B2: GI102-M61: hCD80-Fc-IL-2 variant (3M) (R38A, F42A, E61R); SEQ ID NO: 28 (protein)
chain: VIHVTKEVKEVATLSCGHNVSVEELAQTRIYWQKEKKMVLTMMSGDMNIWPEYKNRTIFDITNNLSIVILALRPSDEGTYECVVLKYEKDAFKREHLAEVTLSVKADFPTPSISDFEIPTSNIRRIICSTSGGFPEPHLSWLENGEELNAINTTVSQDPETELYAVSSKLDFNMTTNHSFMCLIKYGHLRVNQTFNWNTTKQEHFPDNGSGGGGSGGGGSGGGGSAESKYGPPCPPCPAPEAAGGPSVFLFPPKPKDQLMISRTPEVTCVVVDVSQEDPEVQFNWYVDGVEVHNAKTKPREEQFNSTYRVVSVLTVLHQDWLNGKEYKCKVSNKGLPSSIEKTISKAKGQPREPQVYTLPPSQEEMTKNQVSLTCLVKGFYPSDIAVEWESNGQPENNYKTTPPVLDSDGSFFLYSRLTVDKSRWQEGNVFSCSVLHEALHNHYTQKSLSLSLGGGGGSAPTSSSTKKTQLQLEHLLLDLQMILNGINNYKNPKLTAMLTAKFYMPKKATELKHLQCLERELKPLEEVLNLAQSKNFHLRPRDLISNINVIVLELKGSETTFMCEYADETATIVEFLNRWITFCQSIISTLT
modifications: Sequence of fusion protein (GI102-M61)
- proportion of CD8+ T cells ([2]; anti-CD3ε 1 μg/ml, 7 days, compared with no stimulus, anti-CD3 antibody alone and GI101C1): significant increase
- proliferation of CD4+/FoxP3+ Treg cells [2]: did not exhibit a significant increase

B3: GI101C1: comparative fusion protein: human CD80 fragment, Ig hinge, Fc domain; SEQ ID NO: 17 (protein)
chain: VIHVTKEVKEVATLSCGHNVSVEELAQTRIYWQKEKKMVLTMMSGDMNIWPEYKNRTIFDITNNLSIVILALRPSDEGTYECVVLKYEKDAFKREHLAEVTLSVKADFPTPSISDFEIPTSNIRRIICSTSGGFPEPHLSWLENGEELNAINTTVSQDPETELYAVSSKLDFNMTTNHSFMCLIKYGHLRVNQTFNWNTTKQEHFPDNGSGGGGSGGGGSGGGGSAESKYGPPCPPCPAPEAAGGPSVFLFPPKPKDQLMISRTPEVTCVVVDVSQEDPEVQFNWYVDGVEVHNAKTKPREEQFNSTYRVVSVLTVLHQDWLNGKEYKCKVSNKGLPSSIEKTISKAKGQPREPQVYTLPPSQEEMTKNQVSLTCLVKGFYPSDIAVEWESNGQPENNYKTTPPVLDSDGSFFLYSRLTVDKSRWQEGNVFSCSVLHEALHNHYTQKSLSLSLG
modifications: Sequence of fusion protein (GI101C1)
- proliferation of CD4+/FoxP3+ Treg cells [2]: did not exhibit a significant increase
